According to a protein production outcome set (Wang et al. 2014):

Assay: label from the status in PepcDB records

Sequence	protein production
MTISADPDRDWKNRISAQALRQIQELDLALDPNSFELWYTFFSGRHKALTEAVNALLAATGRPSAGDISGLYEQFLYPTKAVTRIHAIGALVHSQSNALIDVIEEASDATHGYETRLSSAAPRLALGRMEDGLQTIVDELLTWTMDIQTANAVLVDRLRSAADQVRKLQDQLDQVRLESMTDPLTEVGNRKYFENQLSLHVASDDSGPLALLIVDLDNFKQFNDRHGHVVGDDVLRLAASTIKHNCRRDDVVCRYGGDEFAIILPRTPLREALLLGEAIRAAIAARELHRRSTHESLGRLLISIGAAEFRPGETADDFVERADHWMYAAKQARRDRTRPGPDAAARDPGERRPDILWHETYACGEPTIDAQHRELFDLANVILGPEIEMLEPARLSELVELLLTRVAEHFQYEQAVLEASGYDECGLHRMEHDHLLIRARQVSEAVVSGHQSLGELRAFLVNSVILGHMLKDDRRFFPLFDRQASSATQSGAAPVHRERRRLSL	failed
MRVISRRTSLILFSGLVFVLASMLLYLYLNSGSEQTQTYNESRDLIRQLKQQDAVWENEVLKARVAVSHNYDPLVIPLKEMKRLWARFDRREAEQGRDESDQWRDAHDGFLSAFGEKARLVEQFKSHNALLRNSLAFLPTAEDGIQAQINTMLAPNRQEVHVFVTDTYDLLLSALEFAQVTSVERAAEIEVGLGNLAVNTENLPKEFQTPLNLLSNHVALILREQPVVNRLLEQIEAIPVAERLDTITSLLDRDQQQVEKINRKNHLYTLWLSGLLMFSVICLAALLVRSFAEVRRVNNALQSANDVLEQRVEERTLALRNAQSELFNAARQAGMAEIATNVLHNVGNVLNSVNTSSDLIARTLRSSKTQGLGKAMQLFREHATDIGRFLDEDPRGRLLPGYLNQLTEAIADEQKEMAIELERMNKSIDHIKEVVATQQSYAGAKNVPEPLSVNDLVEDALRMNAGALTRHQVRVVRDFADLPLVMGDRHRLLLILINLISNAKYAMSGPGSDPRTMILRTRIVEGGLLEMSVLDEGEGIAPENLQKIFAHGFTTRKDGHGFGLHSCALAAIEMNGHLTAHSDGPGLGAVFTLRIPLIAVTEPA	failed
MIRNTSNGWGSVSRWLHWILALTIIGMIGFGWWMNHIPARPDRFFYRSIHADIGYVILLLTVLRLVWRVVNPTPALPADSQPWQRLAARISHGALYLAVIAVIVLGWAHSGAHAPDYSDFFGLFHVPQFTSPDRAAANAYEDRHILFAYVLLALIAVHVVAALWHHFIRRDRVVTRMVADEAG	failed
MEESLKVGIAGLGTVGSSVVRILREKANSLTCQCGRSIKVVAVSARDKSRNRGIDLSDVKWFDSPVEMASSDEIDVFVELIGGESDVVYAAVKKALETGHHVVTANKALLAQHGGRLAVSAEKKGVFLHFEAAVAGGIPIIKVMRESLVSNHISRIYGILNGTCNYILTRMFTEGLSFKECLEDAQRLGYAEVDPTFDIGGNDTAHKLALLTSLAFGTAVSLDDIYVEGISNISQIDIRAADELGYRIKLLGVALKTETGIEQRVHPTMVPTSSMIAQIHGVTNALSIQSDLLGELLLSGPGAGGTATASAVIGDLADIAKARPGFQYAPVLGRPALGLAPHKKARISHHAGGYFIRLNVHDRAGVFAAVAKHMAGNHISLESIVQRSFVESQSVKTIILITHETTEVNVQQALAAIEKDGHLVAKSQFIRIEPMVLEHHHHHH	failed
MPIVVFHKGDETFTDEVKDNTNLVVRAGIKQFPYPNLRYQCGMGKCATCACRILAGGEHLPEPNWKEKKQLGDRLAQGYRLACQLWITHDIELRQDAAAPAGGGD	failed
MRITSTANPRIKELARLLERKHRDSQRRFLIEGAREIERALQAGIELEQALVWEGGLNPEEQQVYAALGRVGRLALLEVSEAVLKKLSVRDNPAGLIALARMPERTLEEYRPSPDALILVAVGLEKPGNLGAVLRSADAAGAEAVLVAGGVDLYSPQVIRNSTGVVFSLRTLAASESEVLDWIKQHNLPLVATTPHAEALYWEANLRPPVAIAVGPEHEGLRAAWLEAAQTQVRIPMQGQADSLNVSVSAALLLYEALRQRLLRDRLTKTHSTL	not failed
MSCTNRVPGILMCEIFIRANQRSYSVQARSLRLHGVATSVRLEQLFWDVLEEIAARDGMRVTQLIERLYDELVQYRGEAANFTSFLRVCCLRYQVLQAEGRIPADATVPIRSLDAQAVLRGLPANLYDSRPLG	failed
MLENSITYEKPLYIIKMNQRKKIVQIALPAMAENLLQMLMGVVDNYLVAQIGLVAVSGVSVANNIITIYQAIFIALGAAVSSLVAKSLGEDNQARVRFYQSESVAITLMLSVVLGFISFVFGSNMLHLLGTTDSVTQAGGIYLAIVGGLVVSLGLQTTLGAILRAQGKARLPMYVSFLTNIVNVILATTAIYIGHWGIVGVAAATVLSRFLGTFVLACQLPIKAILRSMRIKIDKAFLAIALPSAGERLMMRAGDVVIIAIIVKFGTAAVAGNAIGETLTQFNYMPGMGVATATVILVAHNLGQGKKKVIKEVVRESYIISTVFMLLVGACIFFGGRQLTYLFTENKAALQASLVVLFYSFIGGPATSGTLVFTAVWQGLGKAKLTFYATTVGMWLIRIVLGYYLGVSLNLGLAGVWLATLADNVFRWLFLYCLYRKYMQGFNNNLSSS	failed
MLFESINTGCLDGNDTPWMPFAPYSNDVMVKYFKIDPVRGETITLLKAPAGMEMPRHHHTGTVIVYTVQGSWRYKEHDWVAHAGSVVYETASTRHTPQSAYAEGPDIITFNIVAGELLYLDDKDNIIAVENWKTSMDRYLNYCKAHGIRPKDLSTFEG	not failed
MPSLFSLYRKIFFGRKPGWDQQPLPYIKVTAPNVRVSEAKISQYAQVCGFDFDGKLLPPTYLYVMAFRLHAVIFTHDGITFPLLGMIHLKNRIQVYRPAAVDEVFALECALTTSRETDSGLEFEFVSKAFVGEELVWESLSTYLYRIETAGRRVRPPKALDMAWDSPQSWELGEDLGRRYAKASGDYNLIHLHPMLSKRFGFDRVLAHGMWSKARCLAELMPEIGERPFVVDVAFKLPLLMPAEVGFGYEKTEDKWVFELRDSKGRRPHLSGEVQL	failed
MTSHHAIEVTKTVLEVADVAWTAVETYHHHHHHQDENHESTNPISDPRDRELEALRQENRRLRTLLESNLKLFETLAESAAFSHDCPSDLYARLVTMVTSRDFLARLENLRQALSNGTQNQFPFKEPTEDDVKTVEVLIEMDHQEPSWWVLVTDDMVPSNVEEQSAIDNEHYIVVNEEHVIDAVAHFLAKCIMSNPKAKNLKPEELQKLLVQEVTALSKVGKVVDIWHAGKMFYTLSTWGLAFGGLYQARGVLKIAAKGVHATSKVVLRAL	failed
KELIQNIIEESYTDSQFTLSVLSEKLDLSSGYLSIMFKKNFGIPFQDYLLQKRMEKAKLLLLTTELKNYEIAEQVGFEDVNYFITKFKKYYQITPKQYRE	not failed
MPHSSTNITKAVLQGRGLYPISLVTGAMFTEEMYVVLESTTRAETFLTPMELQAKLMEYLTGTEVSLSPDLLALPDVESRAQYLMTTACELQLANGGYLQWYAVRLEKLEHHHHHH	not failed
MDSGTINIKKWVVIYPVYINSKKTVAEGRRISVSKSCENPNCIEISDCCKHLKLPSAVEIDKAYPRDFMQVGRVRVQLKREDGTLLNPAITSRKHLMQKIAELVPRHPERVKKQEAQKAKKQEPQATTSTSGTSSKSGKGGKKKR	failed
MRHLGLRNVISKLPAKINAAREFATSALVLIVFFGLLLILGRQFFRDSVVLEPISVPLHLEESGLNGGVAAQWLIDSIRTIQRNAASTKETKAIQATPKQINIEMPGVGFSLATIEQIIREALALPSPFIKGEIIKLGDSYQIRLRLPGAPYIHIEQPLGDKDVEKLIAKSAEKILLLKDPYIVAVDYYRKAEYKKAIEVINNMQPGADRLQSAYNELLLAAIATKQLEHEKASLHLKKADQLAPNLGVVKLNQAIQHALKKDPSTALSKYKEAKQLNLELQDDAFHSQILTELGRELVTDDSAEEKLALFRKAIDLAPENASAIIRLAEVLAHRQRPEENNEMLKLYEAAIGLVPNKPKYHFQYGKTLWEMGNKDKGCVQVKKAVELKPAMRVLANKYQCSK	failed
